Experiments:
[1] = biological target: SARS CoV-2 spike protein on pseudovirus (SARS-CoV-2, UniProt P0DTC2 14-1273); experiment: cell-based or functional assay
[2] = biological target: T1, SARS-CoV-2 Receptor Binding Domain (RBD) protein (SARS-CoV-2); experiment: SPR (Carterra LSA), scFv captured via anti-V5, RBD as analyte
[3] = biological target: T1, SARS-CoV-2 Receptor Binding Domain …; experiment: SPR (Carterra LSA), scFv captured via anti-V5, RBD as analyte, 1:1 fit

Binder | IC50 [µg/mL] pseudotyped lenti neut [1] [µg/mL] | Kd [2] [nM] | Kd [3] [nM]
COVID19_P23_G11 (scFv, V domains shown) VH: QVQLVQSGAEVKKPGASVKVSCKASGGTFRSTAISWVRQAPGQGLEWMGWMNPNSGNTGYAQKFQGRVTMTRDTSTSTVYMELSSLRSEDTAVYYCARAGYSSSSGYYYYGMDVWGKGTTVTVSS VL: DIQMTQSPSSLSASVGDRVTITCRASQGISNNLNWYQQKPGKAPKLLIYAASSLQSGVPSRFSGSGSGTDFTLTISSLQPEDFATYYCQQYDTFPLTFGQGTKVEIKR | 0.26 |  | 
COVID19_P23_G12 (scFv, V domains shown) VH: QVQLVQSGAEVKKPGASVKVSCKASGYIFTSYPIHWVRQAPGQGLEWMGWMNPNSGNTGYAQKFQGRVTMTRDTSTSTVYMELSSLRSEDTAVYYCARDRGSYDTDAFDIWGQGTMVTVSS VL: DIQMTQSPSSLSASVGDRVTITCRASQDISNYLNWYQQKPGKAPKLLIYAASNLQSGVPSRFSGSGSGTDFTLTISSLQPEDFATYYCQQANSFPSTFGQGTKLEIKR | 15.9 | < 50 | 0.37
COVID19_P24_G06 (scFv, V domains shown) VH: QVQLVQSGAEVKKPGASVKVSCKASGYTFTNYGISWVRQAPGQGLEWMGWISARNGNTNYAQKFQGRVTMTRDTSTSTVYMELSSLRSEDTAVYYCTTDPVLEWFGYSIWGQGTMVTVSS VL: not shown | 0.16 |  | 
COVID19_P24_C01 (scFv, V domains shown) VH: QVQLVQSGAEVKKPGASVKVSCKASGYTFTRYYIHWVRQAPGQGLEWMGIINPSGGSTTYAQKFQGRVTMTRDTSTSTVYMELSSLRSEDTAVYYCAKGAPHDYIWGSYRPDAFDIWGQGTMVTVSS VL: DIQMTQSPSSLSASVGDRVTITCRASENIDSWLAWYQQKPGKAPKLLIYEASTLESGVPSRFSGSGSGTDFTLTISSLQPEDFATYYCHQYLSSPETFGQGTKVEIKR | 0.92 |  | 
COVID19_P24_D08 (scFv, V domains shown) VH: QVQLVQSGAEVKKPGASVKVSCKASGYTFTSYDINWVRQAPGQGLEWMGIIDPSGGSTSYAQKFQGRVTMTRDTSTSTVYMELSSLRSEDTAVYYCATVTPGYGMDVWGQGTTVTVSS VL: DIQMTQSPSSLSASVGDRVTITCRASQTIYSYLNWYQQKPGKAPKLLIYDASNLETGVPSRFSGSGSGTDFTLTISSLQPEDFATYYCQQAISFPLTFGGGTKLEIKR | 17 |  | 

— patent US11021532 (CENTIVAX, dated 2021)
